Laboratory results reported in article PMC6058054, “Mining the Genome of Streptomyces leeuwenhoekii: Two New Type I Baeyer–Villiger Monooxygenases From Atacama Desert” (Frontiers in Microbiology, 2018).

Key:
[1] = target: T1, Sle_62070 (Streptomyces leeuwenhoekii, UniProt A0A0F7W6X7); test: UV-vis spectrum of purified flavoprotein; FAD quantified after SDS unfolding; assay type: binding; details: co-purified FAD
T1 construct: full-length, fused to N-terminal His-tagged phosphite dehydrogenase (PTDH) in pCRE2, fusion kept; expressed in E. coli NEB 10-beta; FAD flavoprotein

[2] = target: T2, Sle_13190 (Streptomyces leeuwenhoekii, UniProt A0A0F7VUW7); test: as above; assay type: binding; details: co-purified FAD
T2 construct: full-length, fused to N-terminal His-tagged phosphite dehydrogenase (PTDH) in pCRE2, fusion kept; expressed in E. coli NEB 10-beta; FAD flavoprotein

[3] = substrate: O=C1CC2C=CCC12; test: purified protein; assay type: biochemical, Streptomyces leeuwenhoekii; details: 150 uM NADPH, 10 uM FAD, 50 mM Tris-HCl pH 8.0, 10% glycerol, 100 mM NaCl, 2.5% 1,4-dioxane, 25 C
[4] = substrate: O=C1CCCCC1c1ccccc1; test: purified protein; assay type: biochemical, Streptomyces leeuwenhoekii; details: 150 uM NADPH, 10 uM FAD, 50 mM Tris-HCl pH 8.0, 10% glycerol, 100 mM NaCl, 2.5% 1,4-dioxane, 25 C
[5] = substrate: O=C1CCC(c2ccccc2)CC1; test: purified protein; assay type: biochemical, Streptomyces leeuwenhoekii; details: 150 uM NADPH, 10 uM FAD, 50 mM Tris-HCl pH 8.0, 10% glycerol, 100 mM NaCl, 2.5% 1,4-dioxane, 25 C
[6] = substrate: CC(=O)Cc1ccccc1; test: purified protein; details: 150 uM NADPH, 10 uM FAD, 50 mM Tris-HCl pH 8.0, 10% glycerol, 100 mM NaCl, 2.5% 1,4-dioxane, 25 C

Cc1cc2nc3c(=O)[nH]c(=O)nc-3n(C[C@H](O)[C@H](O)[C@H](O)COP(=O)(O)OP(=O)(O)OC[C@H]3O[C@@H](n4cnc5c(N)ncnc54)[C@H](O)[C@@H]3O)c2cc1C [FAD]
UV-vis spectrum of purified flavoprotein; FAD quantified after SDS unfolding [1]: a clear yellow color was indicative of proper folding and FAD binding | UV-vis spectrum of purified flavoprotein; FAD quantified after SDS unfolding [2]: a clear yellow color was indicative of proper folding and FAD binding

B1: Sle_62070 (Streptomyces leeuwenhoekii) (protein)
chain: MTQGQTLSPEELAGLRERYRLERERRVRPDGTRQYLAADAEFGYYAEDPYAGEPPEREPLRDRVDVAVVGGGFGGILAGARLRRRGVRRVRVIEKGGDFGGTWYWNRYPGIHCDIESHVYLPLLDETGYVPEWKYAPGEEIRRHAVRIAEKFDLYADAQFSTAVTSLTWDEETRAWVVATDRGDEFRATYVITATGTLSELKLPGIPGIETFEGHTFHTSRWDYAYTGGTPDGGLTGLADKRVGVVGTGATGIQVIPKLAEDAGHLYVFQRTPSSVDVRANRRTTPQDVGADRDGWARERRDNFLRIVSGETAEEDLVADQWTASAGLLEKLVPSFRRQGDRTAFEAAYEVADAAKMNEIRARVERIVTDRDTAEKLKPWYRYACKRPTFSDTYLQAFNRDNVTLVDTADTHGIERMTERGVVVGGTEYALDCLIFATGFSVGVSGVHSGRLPVRGRGGVQLLDAWRKEGPRTLHGFTSNGFPNLIQMGTVQNASSVNYTHVLDEQAVHAAALVAAAEAKGAVIEPSREAEDAWIAVLAEDAPDHEWFHAECTPGYYNAEGRGRAKGPTAYPHGASAFHELLRRWREESMDGILRAGTPVRGPGGSTVS
notes: full-length, fused to N-terminal His-tagged phosphite dehydrogenase (PTDH) in pCRE2, fusion kept; expressed in E. coli NEB 10-beta; FAD flavoprotein
Km [3]: 200 ± 10 µM | kcat [3]: 4 ± 0.06 s⁻¹ | kcat/Km [3]: 20000 M⁻¹ s⁻¹ | kcat [4]: > 4 s⁻¹ | kcat/Km [4]: 1300 M⁻¹ s⁻¹ | kcat [5]: > 4 s⁻¹ | kcat/Km [5]: 1300 M⁻¹ s⁻¹ | Km [6]: 3000 ± 300 µM | kcat [6]: 4.1 s⁻¹ | kcat/Km [6]: 1300 M⁻¹ s⁻¹
